Test results published in patent US20200270325A1 (Merck Sharp & Dohme, published 2020).
Numbered stars: 1 amine (or outer) side, 2 acyl side, 3 side chain; on linkers, the order of the positions; unused ones are H or OH. Square brackets hold non-standard residues; d marks the D form. Side chains are listed from the residue outwards. Ends that are not written are not given here. * marks the point of attachment. Phe(4-CH2NH2) = NCc1ccc(C[C@H](N)C(=O)O)cc1; C18 diacid = O=C(O)CCCCCCCCCCCCCCCCC(=O)*; C16 diacid = O=C(O)CCCCCCCCCCCCCCC(=O)*; γGlu = O=C(O)[C@H](CCC(=O)[*:2])N[*:1]; Met(O2) = CS(=O)(=O)CC[C@H](N)C(=O)O; αMeD = C[C@](N)(CC(=O)O)C(=O)O; αMeS = C[C@](N)(CO)C(=O)O; AEEA = NCCOCCOCC(=O)O; Aib = CC(C)(N)C(=O)O

B1: TP636 (peptide)
peptide: H[Aib]QGTFTSDYSKYLDARAA[Phe(4-CH2NH2)]([AEEA-AEEA-γGlu-C18 diacid])DFVQWL[Met(O2)][αMeD]T-NH2
modifications: N-terminus assumed
SMILES: CC(C)C[C@H](NC(=O)[C@H](Cc1ccc(O)cc1)NC(=O)[C@H](CCCCN)NC(=O)[C@H](CO)NC(=O)[C@H](Cc1ccc(O)cc1)NC(=O)[C@H](CC(=O)O)NC(=O)[C@H](CO)NC(=O)[C@@H](NC(=O)[C@H](Cc1ccccc1)NC(=O)[C@@H](NC(=O)CNC(=O)[C@H](CCC(N)=O)NC(=O)C(C)(C)NC(=O)[C@@H](N)Cc1c[nH]cn1)[C@@H](C)O)[C@@H](C)O)C(=O)N[C@@H](CC(=O)O)C(=O)N[C@@H](C)C(=O)N[C@@H](CCCNC(=N)N)C(=O)N[C@@H](C)C(=O)N[C@@H](C)C(=O)N[C@@H](Cc1ccc(CNC(=O)COCCOCCNC(=O)COCCOCCNC(=O)CC[C@H](NC(=O)CCCCCCCCCCCCCCCCC(=O)O)C(=O)O)cc1)C(=O)N[C@@H](CC(=O)O)C(=O)N[C@@H](Cc1ccccc1)C(=O)N[C@H](C(=O)N[C@@H](CCC(N)=O)C(=O)N[C@@H](Cc1c[nH]c2ccccc12)C(=O)N[C@@H](CC(C)C)C(=O)N[C@@H](CCS(C)(=O)=O)C(=O)N[C@@](C)(CC(=O)O)C(=O)N[C@H](C(N)=O)[C@@H](C)O)C(C)C
B2: TP637 (peptide)
peptide: H[Aib]QGTFTSDYSKYLDARAAQDFVK([AEEA-γGlu-C18 diacid])WL[Met(O2)]DT-NH2
modifications: N-terminus assumed
SMILES: CC(C)C[C@H](NC(=O)[C@H](Cc1ccc(O)cc1)NC(=O)[C@H](CCCCN)NC(=O)[C@H](CO)NC(=O)[C@H](Cc1ccc(O)cc1)NC(=O)[C@H](CC(=O)O)NC(=O)[C@H](CO)NC(=O)[C@@H](NC(=O)[C@H](Cc1ccccc1)NC(=O)[C@@H](NC(=O)CNC(=O)[C@H](CCC(N)=O)NC(=O)C(C)(C)NC(=O)[C@@H](N)Cc1c[nH]cn1)[C@@H](C)O)[C@@H](C)O)C(=O)N[C@@H](CC(=O)O)C(=O)N[C@@H](C)C(=O)N[C@@H](CCCNC(=N)N)C(=O)N[C@@H](C)C(=O)N[C@@H](C)C(=O)N[C@@H](CCC(N)=O)C(=O)N[C@@H](CC(=O)O)C(=O)N[C@@H](Cc1ccccc1)C(=O)N[C@H](C(=O)N[C@@H](CCCCNC(=O)COCCOCCNC(=O)CC[C@H](NC(=O)CCCCCCCCCCCCCCCCC(=O)O)C(=O)O)C(=O)N[C@@H](Cc1c[nH]c2ccccc12)C(=O)N[C@@H](CC(C)C)C(=O)N[C@@H](CCS(C)(=O)=O)C(=O)N[C@@H](CC(=O)O)C(=O)N[C@H](C(N)=O)[C@@H](C)O)C(C)C
B3: TP638 (peptide)
peptide: H[Aib]QGTFTSDYSKYLDARAAQDFV[Phe(4-CH2NH2)]([AEEA-γGlu-C18 diacid])WLLDT-NH2
modifications: N-terminus assumed
SMILES: CC(C)C[C@H](NC(=O)[C@H](Cc1ccc(O)cc1)NC(=O)[C@H](CCCCN)NC(=O)[C@H](CO)NC(=O)[C@H](Cc1ccc(O)cc1)NC(=O)[C@H](CC(=O)O)NC(=O)[C@H](CO)NC(=O)[C@@H](NC(=O)[C@H](Cc1ccccc1)NC(=O)[C@@H](NC(=O)CNC(=O)[C@H](CCC(N)=O)NC(=O)C(C)(C)NC(=O)[C@@H](N)Cc1c[nH]cn1)[C@@H](C)O)[C@@H](C)O)C(=O)N[C@@H](CC(=O)O)C(=O)N[C@@H](C)C(=O)N[C@@H](CCCNC(=N)N)C(=O)N[C@@H](C)C(=O)N[C@@H](C)C(=O)N[C@@H](CCC(N)=O)C(=O)N[C@@H](CC(=O)O)C(=O)N[C@@H](Cc1ccccc1)C(=O)N[C@H](C(=O)N[C@@H](Cc1ccc(CNC(=O)COCCOCCNC(=O)CC[C@H](NC(=O)CCCCCCCCCCCCCCCCC(=O)O)C(=O)O)cc1)C(=O)N[C@@H](Cc1c[nH]c2ccccc12)C(=O)N[C@@H](CC(C)C)C(=O)N[C@@H](CC(C)C)C(=O)N[C@@H](CC(=O)O)C(=O)N[C@H](C(N)=O)[C@@H](C)O)C(C)C
B4: TP639 (peptide)
peptide: H[Aib]QGTFTSDYSKYLDARAAQDFV[Phe(4-CH2NH2)]([γGlu-C18 diacid])WLLDT-NH2
modifications: N-terminus assumed
SMILES: CC(C)C[C@H](NC(=O)[C@H](Cc1ccc(O)cc1)NC(=O)[C@H](CCCCN)NC(=O)[C@H](CO)NC(=O)[C@H](Cc1ccc(O)cc1)NC(=O)[C@H](CC(=O)O)NC(=O)[C@H](CO)NC(=O)[C@@H](NC(=O)[C@H](Cc1ccccc1)NC(=O)[C@@H](NC(=O)CNC(=O)[C@H](CCC(N)=O)NC(=O)C(C)(C)NC(=O)[C@@H](N)Cc1c[nH]cn1)[C@@H](C)O)[C@@H](C)O)C(=O)N[C@@H](CC(=O)O)C(=O)N[C@@H](C)C(=O)N[C@@H](CCCNC(=N)N)C(=O)N[C@@H](C)C(=O)N[C@@H](C)C(=O)N[C@@H](CCC(N)=O)C(=O)N[C@@H](CC(=O)O)C(=O)N[C@@H](Cc1ccccc1)C(=O)N[C@H](C(=O)N[C@@H](Cc1ccc(CNC(=O)CC[C@H](NC(=O)CCCCCCCCCCCCCCCCC(=O)O)C(=O)O)cc1)C(=O)N[C@@H](Cc1c[nH]c2ccccc12)C(=O)N[C@@H](CC(C)C)C(=O)N[C@@H](CC(C)C)C(=O)N[C@@H](CC(=O)O)C(=O)N[C@H](C(N)=O)[C@@H](C)O)C(C)C
B5: TP659 (peptide)
peptide: HXQGTFTSDXSKYLDXRAAQDFVQWLLAX
modifications: D-Ser (s) at 2; pAF(PEG2PEG2γEC16OH) at 10; Aib (U) at 16; KγE at 30-31 (γ-glutamic acid after Lys 30); C-terminal amide

These binders were tested against human GLP-1 receptor (GLP1R) (human, UniProt P43220 24-463) (assay: cell-based or functional assay).

B1 and H[Aib]QGTFTSD[Phe(4-CH2NH2)]([AEEA-AEEA-γGlu-C20‑OH])SKYLDARAAQDFVQWL[Met(O2)]DT-NH2 [TP580] are within 1.5-fold of each other in “GLP1R EC50 human” value: 0.52 nM for the first, 0.46 nM for the second.

First: B2
Second: B3
The “GLP1R EC50 human” value of the first is 2.9-fold lower: 0.53 nM for the first, 1.55 nM for the second.

B4 and H[Aib]QGTFTSD[Phe(4-CH2NH2)]([AEEA-AEEA-γGlu-C16 diacid])SKYLD[Aib]RAAQDFVQWLL[αMeD]TK-{γGlu-NH2} [TP657] are within 1.5-fold of each other in “GLP1R EC50 human” value: 2.09 nM for the first, 2.18 nM for the second.

Compared with H[Aib]QGTFTSD[Phe(4-CH2NH2)]([AEEA-AEEA-γGlu-C16 diacid])SKYLD[Aib]RAAQDFVQWL[Met(O2)]ATK-{γGlu-NH2} [TP658], B5 is higher in “GLP1R EC50 human” value: 1.66 nM for the first, > 4.9 nM for the second.

Compared with H[αMeS]QGTFTSD[Phe(4-CH2NH2)]([AEEA-AEEA-γGlu-C16 diacid])SKYLD[Aib]RAAQDFVQWLLATK-{γGlu-NH2} [TP660], H[Aib]QGTFTSDYSKYLD[Aib]RAAK([AEEA-AEEA-γGlu-C16 diacid])DFVQWLLATK-{γGlu-NH2} [TP662] is 6.9-fold lower in “GLP1R EC50 human” value: 3.59 nM for the first, 0.52 nM for the second.

Going from H[Aib]QGTFTSDYSKYLD[Aib]RAA[Phe(4-CH2NH2)]([AEEA-AEEA-γGlu-C16 diacid])DFVQWLLATK-{γGlu-NH2} [TP663] to H[Aib]QGTFTSD[Phe(4-CH2NH2)]([AEEA-AEEA-γGlu-C20‑OH])SKYLD[Aib]RAAQDFVQWLLATK-{γGlu-NH2} [TP581], the “GLP1R EC50 human” value rises from 0.38 nM to 1.69 nM (4.4-fold).

Each binder was assayed against human Glucagon receptor (GCGR) (human, UniProt P47871 26-477) (assay: cell-based or functional assay).
human Glucagon receptor (GCGR), sequence (P47871 26-477): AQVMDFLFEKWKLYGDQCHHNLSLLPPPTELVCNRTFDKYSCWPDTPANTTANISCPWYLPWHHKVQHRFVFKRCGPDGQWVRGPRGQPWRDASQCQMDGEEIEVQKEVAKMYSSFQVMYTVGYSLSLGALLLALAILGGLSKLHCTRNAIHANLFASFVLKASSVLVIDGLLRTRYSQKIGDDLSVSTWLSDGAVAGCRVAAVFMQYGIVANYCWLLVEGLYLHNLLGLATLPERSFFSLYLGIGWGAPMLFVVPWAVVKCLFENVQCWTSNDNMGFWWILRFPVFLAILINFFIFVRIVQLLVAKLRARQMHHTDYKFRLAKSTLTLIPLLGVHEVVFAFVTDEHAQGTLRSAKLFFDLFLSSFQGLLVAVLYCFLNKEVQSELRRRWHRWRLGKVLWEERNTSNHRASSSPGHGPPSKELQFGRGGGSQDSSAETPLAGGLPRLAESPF

First: B1
Second: H[Aib]QGTFTSD[Phe(4-CH2NH2)]([AEEA-AEEA-γGlu-C20‑OH])SKYLDARAAQDFVQWL[Met(O2)]DT-NH2 [TP580]
The “GCGR EC50 human” value of the first is 9.9-fold lower: 0.11 nM for the first, 1.09 nM for the second.

Compared with B2, B3 is 5.4-fold higher in “GCGR EC50 human” value: 0.94 nM for the first, 5.05 nM for the second.

Compared with B4, H[Aib]QGTFTSD[Phe(4-CH2NH2)]([AEEA-AEEA-γGlu-C16 diacid])SKYLD[Aib]RAAQDFVQWLL[αMeD]TK-{γGlu-NH2} [TP657] is 24-fold lower in “GCGR EC50 human” value: 3.38 nM for the first, 0.14 nM for the second.

First: H[Aib]QGTFTSD[Phe(4-CH2NH2)]([AEEA-AEEA-γGlu-C16 diacid])SKYLD[Aib]RAAQDFVQWL[Met(O2)]ATK-{γGlu-NH2} [TP658]
Second: B5
The “GCGR EC50 human” value of the first is 7-fold higher: 3.2 nM for the first, 0.46 nM for the second.

Going from H[αMeS]QGTFTSD[Phe(4-CH2NH2)]([AEEA-AEEA-γGlu-C16 diacid])SKYLD[Aib]RAAQDFVQWLLATK-{γGlu-NH2} [TP660] to H[Aib]QGTFTSDYSKYLD[Aib]RAAK([AEEA-AEEA-γGlu-C16 diacid])DFVQWLLATK-{γGlu-NH2} [TP662], the “GCGR EC50 human” value falls from 4.54 nM to 1.45 nM (3.1-fold).

Going from H[Aib]QGTFTSDYSKYLD[Aib]RAA[Phe(4-CH2NH2)]([AEEA-AEEA-γGlu-C16 diacid])DFVQWLLATK-{γGlu-NH2} [TP663] to H[Aib]QGTFTSD[Phe(4-CH2NH2)]([AEEA-AEEA-γGlu-C20‑OH])SKYLD[Aib]RAAQDFVQWLLATK-{γGlu-NH2} [TP581], the “GCGR EC50 human” value rises from 0.22 nM to 4.95 nM (22-fold).
